Test results as given in PMC3229523, “Identification of Lactoferricin B Intracellular Targets Using an Escherichia coli Proteome Chip” (PLoS ONE, 2011).
Ends that are not written are not given here. * marks the point of attachment. Biotin = O=C1N[C@H]2[C@H](CS[C@H]2CCCCC(=O)*)N1

Key:
Assay in all cases: peptide or protein array; E. coli proteome chip: purified His-tagged proteins printed in duplicate on Fullmoon slides, blocked with 1% BSA; 10 nM N-terminal biotinylated LfcinB with 1% BSA, room temperature, 1 h; detected with DyLight 649-labeled streptavidin, ratio to DyLight 549-labeled anti-His antibody; ProCAT normalisation, local cut-off; triplicate chips
Settings in all cases: both partners purified
[1] = biological target: T1, IlvL (E. coli K-12, UniProt P62522 1-32)
T1 construct: IlvL, E. coli K-12
T1 chain (looked up): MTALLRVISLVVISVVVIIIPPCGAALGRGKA

[2] = biological target: T2, HyaE (E. coli K-12, UniProt P19931 1-132)
T2 construct: HyaE, E. coli K-12
T2 sequence (looked up): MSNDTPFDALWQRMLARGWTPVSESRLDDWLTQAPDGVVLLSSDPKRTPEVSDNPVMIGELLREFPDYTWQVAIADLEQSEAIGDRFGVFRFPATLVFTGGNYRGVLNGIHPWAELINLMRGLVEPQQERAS

[3] = biological target: RplW (E. coli K-12, UniProt P0ADZ0 1-100)
[4] = biological target: T3, ArgH (E. coli K-12, UniProt P11447 1-457)
T3 construct: ArgH, E. coli K-12
T3 sequence (looked up): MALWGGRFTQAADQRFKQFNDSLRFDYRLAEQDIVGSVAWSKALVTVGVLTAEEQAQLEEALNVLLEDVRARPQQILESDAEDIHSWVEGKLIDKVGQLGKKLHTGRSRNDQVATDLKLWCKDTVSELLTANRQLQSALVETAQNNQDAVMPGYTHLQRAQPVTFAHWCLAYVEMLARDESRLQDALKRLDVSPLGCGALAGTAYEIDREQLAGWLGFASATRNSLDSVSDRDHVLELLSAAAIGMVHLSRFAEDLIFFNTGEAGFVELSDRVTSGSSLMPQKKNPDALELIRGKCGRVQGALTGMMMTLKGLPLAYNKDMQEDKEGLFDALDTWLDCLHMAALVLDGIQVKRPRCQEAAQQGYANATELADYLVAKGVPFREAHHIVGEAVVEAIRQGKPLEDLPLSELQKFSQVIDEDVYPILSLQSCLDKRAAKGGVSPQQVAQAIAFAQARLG

[5] = biological target: T4, YhiW (E. coli K-12, UniProt P63201 1-242)
T4 construct: YhiW, E. coli K-12
T4 sequence (looked up): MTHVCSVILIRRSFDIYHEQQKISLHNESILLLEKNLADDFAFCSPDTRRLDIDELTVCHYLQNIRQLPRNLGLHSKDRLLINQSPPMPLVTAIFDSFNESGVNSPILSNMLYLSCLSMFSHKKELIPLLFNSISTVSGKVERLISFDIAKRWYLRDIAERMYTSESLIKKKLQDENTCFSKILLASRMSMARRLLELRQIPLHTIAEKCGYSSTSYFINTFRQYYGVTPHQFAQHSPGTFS

[6] = biological target: T5, YjgL (E. coli K-12, UniProt P39336 1-604)
T5 construct: YjgL, E. coli K-12
T5 sequence (looked up): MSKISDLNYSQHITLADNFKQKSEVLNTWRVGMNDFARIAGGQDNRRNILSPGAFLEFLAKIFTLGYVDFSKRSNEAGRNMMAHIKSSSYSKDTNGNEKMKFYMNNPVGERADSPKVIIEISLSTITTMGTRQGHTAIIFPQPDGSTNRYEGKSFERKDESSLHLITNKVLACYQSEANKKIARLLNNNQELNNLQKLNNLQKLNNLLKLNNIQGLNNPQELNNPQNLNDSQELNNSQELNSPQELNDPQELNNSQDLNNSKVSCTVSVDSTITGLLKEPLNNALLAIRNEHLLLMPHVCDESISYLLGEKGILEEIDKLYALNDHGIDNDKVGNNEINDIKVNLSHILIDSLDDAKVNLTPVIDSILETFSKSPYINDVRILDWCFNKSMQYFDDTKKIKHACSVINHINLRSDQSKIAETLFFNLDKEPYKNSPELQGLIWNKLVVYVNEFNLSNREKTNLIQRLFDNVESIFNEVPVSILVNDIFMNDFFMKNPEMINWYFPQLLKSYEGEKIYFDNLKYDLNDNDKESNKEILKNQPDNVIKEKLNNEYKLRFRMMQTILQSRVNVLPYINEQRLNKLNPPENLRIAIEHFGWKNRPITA

Measured: binding result

B1: N-terminal biotinylated Lactoferricin B (peptide, UniProt P24627 36-60, looked up)
peptide: Biotin-FKCRRWQWRMKKLGAPSITCVRRAF
modifications: ends and bridges not checked
notes: lactoferricin B (LfcinB), cationic antimicrobial peptide of 25 amino acids; also called biotinylated LfcinB; biotin-labeled LfcinB; source: bought: Kelowna Inc
binds: all assays above
